We go through 125 sequences from the supplement of paper PMC9112550, “Optimization of the antimicrobial peptide Bac7 by deep mutational scanning” (BMC Biology, 2022).

In this data set the test system is Escherichia coli TOP10. Briefly: shrunken log2 fold change of peptide-encoding DNA abundance (4.5 h post-induction vs induction); higher = less antimicrobial activity (less host growth inhibition). Conditions: time post-induction: 4.5 h; library: site-saturation at positions 5, 18, 19, 20.
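Also: peptides expressed intracellularly from a pBAD plasmid library in pooled LB shake-flask culture, induced with 0.3% L-arabinose, DNA abundance read by NGS, three biological replicates, DESeq2 with apeglm shrinkage.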

For RRIRERPPRLPRPRPRPLWYPRP, the “shrunken log2 fold change” value is -0.287.

For the sequence RRIRFRPPRLPRPRPRPCPPPRP, the “shrunken log2 fold change” value was -0.131.

For RRIRARPPRLPRPRPRPSVHPRP, the “shrunken log2 fold change” value was -0.0906.

RRIRNRPPRLPRPRPRPHIDPRP: the “shrunken log2 fold change” value was -0.186.

In the case of RRIRIRPPRLPRPRPRPSPHPRP, the “shrunken log2 fold change” value is -1.03.

For RRIRQRPPRLPRPRPRPVYQPRP, the “shrunken log2 fold change” value was -0.022.

Regarding RRIRWRPPRLPRPRPRPITDPRP, the “shrunken log2 fold change” value was -0.15.

Consider RRIRYRPPRLPRPRPRPCEEPRP, for which the “shrunken log2 fold change” value is -0.156.

As to RRIRERPPRLPRPRPRPTPSPRP, the “shrunken log2 fold change” value stood at 0.14.

Take RRIRERPPRLPRPRPRPVLMPRP: the “shrunken log2 fold change” value turned out to be 0.0559.

Take RRIRTRPPRLPRPRPRPIPHPRP: the “shrunken log2 fold change” value is -0.307.

For RRIRVRPPRLPRPRPRPQRDPRP, the “shrunken log2 fold change” value is -0.171.

RRIRSRPPRLPRPRPRPHAPPRP: the “shrunken log2 fold change” value is 0.27.

Take RRIRPRPPRLPRPRPRPATRPRP: the “shrunken log2 fold change” value was found to be 0.442.

With RRIRFRPPRLPRPRPRPDDLPRP, the “shrunken log2 fold change” value stood at 0.00489.

As to RRIRNRPPRLPRPRPRPREYPRP, the “shrunken log2 fold change” value was found to be 0.0336.

On to RRIRGRPPRLPRPRPRPPHHPRP, for which the “shrunken log2 fold change” value was 0.537.

RRIRPRPPRLPRPRPRPRNCPRP: the “shrunken log2 fold change” value is 0.0981.

For the sequence RRIRDRPPRLPRPRPRPAEGPRP, the “shrunken log2 fold change” value is 0.015.

Take RRIRKRPPRLPRPRPRPMNCPRP: the “shrunken log2 fold change” value was -0.014.

As to RRIRCRPPRLPRPRPRPGGCPRP, the “shrunken log2 fold change” value was determined as 0.153.

Turning to RRIRARPPRLPRPRPRPDSWPRP, the “shrunken log2 fold change” value stood at 0.508.

On to RRIRVRPPRLPRPRPRPHLVPRP, for which the “shrunken log2 fold change” value was -0.133.

For the sequence RRIRWRPPRLPRPRPRPDFHPRP, the “shrunken log2 fold change” value is -0.239.

In the case of RRIRTRPPRLPRPRPRPSRMPRP, the “shrunken log2 fold change” value is -0.0328.

Take RRIRVRPPRLPRPRPRPHWQPRP: the “shrunken log2 fold change” value is -0.024.

With RRIRKRPPRLPRPRPRPAPWPRP, the “shrunken log2 fold change” value came to 0.82.

For RRIRMRPPRLPRPRPRPEEPPRP, the “shrunken log2 fold change” value stood at 0.0975.

Turning to RRIRIRPPRLPRPRPRPQKMPRP, the “shrunken log2 fold change” value was -0.269.

Regarding RRIRKRPPRLPRPRPRPKYWPRP, the “shrunken log2 fold change” value amounted to 0.255.

In the case of RRIRKRPPRLPRPRPRPRMIPRP, the “shrunken log2 fold change” value was -0.00692.

As for RRIRRRPPRLPRPRPRPRATPRP, the “shrunken log2 fold change” value turned out to be 0.162.

As for RRIRLRPPRLPRPRPRPEYTPRP, the “shrunken log2 fold change” value was -0.0657.

Turning to RRIRQRPPRLPRPRPRPQLCPRP, the “shrunken log2 fold change” value was -0.0247.

For RRIRTRPPRLPRPRPRPTLTPRP, the “shrunken log2 fold change” value was determined as 0.0461.

As for RRIRARPPRLPRPRPRPCFGPRP, the “shrunken log2 fold change” value turned out to be 0.0532.

On to RRIRSRPPRLPRPRPRPKMKPRP, for which the “shrunken log2 fold change” value turned out to be 0.912.

In the case of RRIRQRPPRLPRPRPRPYCNPRP, the “shrunken log2 fold change” value was -1.38.

Turning to RRIRSRPPRLPRPRPRPVSMPRP, the “shrunken log2 fold change” value amounted to 0.0888.

For the sequence RRIRWRPPRLPRPRPRPYPHPRP, the “shrunken log2 fold change” value was -0.184.

Regarding RRIRRRPPRLPRPRPRPRQMPRP, the “shrunken log2 fold change” value was 0.313.

As to RRIRWRPPRLPRPRPRPWRTPRP, the “shrunken log2 fold change” value turned out to be 0.0595.

On to RRIRDRPPRLPRPRPRPHVSPRP, for which the “shrunken log2 fold change” value came to 0.27.

Regarding RRIRCRPPRLPRPRPRPRVWPRP, the “shrunken log2 fold change” value stood at 0.747.

As for RRIRWRPPRLPRPRPRPWEIPRP, the “shrunken log2 fold change” value is 0.124.

In the case of RRIRLRPPRLPRPRPRPWYRPRP, the “shrunken log2 fold change” value was -0.3.

In the case of RRIRIRPPRLPRPRPRPTHAPRP, the “shrunken log2 fold change” value stood at 0.216.

With RRIRYRPPRLPRPRPRPLFNPRP, the “shrunken log2 fold change” value was -1.24.

Turning to RRIRPRPPRLPRPRPRPYCAPRP, the “shrunken log2 fold change” value is -0.312.

With RRIRARPPRLPRPRPRPNAHPRP, the “shrunken log2 fold change” value was determined as 0.437.

Turning to RRIRQRPPRLPRPRPRPDICPRP, the “shrunken log2 fold change” value was -0.0144.

RRIRSRPPRLPRPRPRPLARPRP: the “shrunken log2 fold change” value was 0.0314.

With RRIRKRPPRLPRPRPRPHGTPRP, the “shrunken log2 fold change” value was -0.0973.

As to RRIRSRPPRLPRPRPRPSNMPRP, the “shrunken log2 fold change” value was -1.05.

With RRIRIRPPRLPRPRPRPWMIPRP, the “shrunken log2 fold change” value is -0.0493.

On to RRIRSRPPRLPRPRPRPTVEPRP, for which the “shrunken log2 fold change” value turned out to be 0.119.

Turning to RRIRQRPPRLPRPRPRPYMGPRP, the “shrunken log2 fold change” value is -0.00992.

Regarding RRIRMRPPRLPRPRPRPELFPRP, the “shrunken log2 fold change” value worked out at 3.28.

Take RRIRGRPPRLPRPRPRPFTFPRP: the “shrunken log2 fold change” value was -0.0577.

Take RRIRNRPPRLPRPRPRPVQVPRP: the “shrunken log2 fold change” value is -0.317.

For RRIRCRPPRLPRPRPRPNSQPRP, the “shrunken log2 fold change” value is -0.47.

Turning to RRIRNRPPRLPRPRPRPKYIPRP, the “shrunken log2 fold change” value is -0.667.

For RRIRPRPPRLPRPRPRPNKHPRP, the “shrunken log2 fold change” value was -0.374.

RRIRSRPPRLPRPRPRPECCPRP: the “shrunken log2 fold change” value stood at 0.21.

As to RRIRWRPPRLPRPRPRPLGYPRP, the “shrunken log2 fold change” value is -0.24.

For RRIRARPPRLPRPRPRPLVVPRP, the “shrunken log2 fold change” value amounted to 0.194.

RRIRYRPPRLPRPRPRPSQNPRP: the “shrunken log2 fold change” value is -0.874.

With RRIRPRPPRLPRPRPRPGMMPRP, the “shrunken log2 fold change” value is -0.111.

As for RRIRHRPPRLPRPRPRPKMQPRP, the “shrunken log2 fold change” value is -0.121.

For RRIRLRPPRLPRPRPRPCTIPRP, the “shrunken log2 fold change” value was -0.298.

In the case of RRIRQRPPRLPRPRPRPNKWPRP, the “shrunken log2 fold change” value is -0.0433.

As for RRIRPRPPRLPRPRPRPVGSPRP, the “shrunken log2 fold change” value is 0.261.

Take RRIRERPPRLPRPRPRPFHLPRP: the “shrunken log2 fold change” value was -0.173.

Consider RRIRYRPPRLPRPRPRPHADPRP, for which the “shrunken log2 fold change” value was -0.0359.

With RRIRYRPPRLPRPRPRPAPFPRP, the “shrunken log2 fold change” value was -0.11.

In the case of RRIRDRPPRLPRPRPRPKQRPRP, the “shrunken log2 fold change” value was found to be 0.314.

Consider RRIRFRPPRLPRPRPRPAYLPRP, for which the “shrunken log2 fold change” value is -0.649.

As to RRIRYRPPRLPRPRPRPCPEPRP, the “shrunken log2 fold change” value was -0.421.

For RRIRSRPPRLPRPRPRPVHKPRP, the “shrunken log2 fold change” value was -0.151.

Consider RRIRKRPPRLPRPRPRPILDPRP, for which the “shrunken log2 fold change” value was found to be 0.15.

RRIRYRPPRLPRPRPRPFWQPRP: the “shrunken log2 fold change” value is -0.122.

For RRIRFRPPRLPRPRPRPHGCPRP, the “shrunken log2 fold change” value was -0.064.

In the case of RRIRLRPPRLPRPRPRPTPRPRP, the “shrunken log2 fold change” value was determined as 0.763.

For RRIRKRPPRLPRPRPRPGKLPRP, the “shrunken log2 fold change” value is -0.208.

Consider RRIRVRPPRLPRPRPRPIYGPRP, for which the “shrunken log2 fold change” value is -0.0564.

On to RRIRMRPPRLPRPRPRPKHPPRP, for which the “shrunken log2 fold change” value is 0.612.

On to RRIRWRPPRLPRPRPRPNFYPRP, for which the “shrunken log2 fold change” value is -0.232.

For the sequence RRIRIRPPRLPRPRPRPYNMPRP, the “shrunken log2 fold change” value is -1.39.

RRIRFRPPRLPRPRPRPKHIPRP: the “shrunken log2 fold change” value was -0.615.

With RRIRERPPRLPRPRPRPYVSPRP, the “shrunken log2 fold change” value is -0.672.

For RRIRERPPRLPRPRPRPPSCPRP, the “shrunken log2 fold change” value was 0.103.

With RRIRPRPPRLPRPRPRPIKDPRP, the “shrunken log2 fold change” value was -0.763.

As to RRIRERPPRLPRPRPRPVKDPRP, the “shrunken log2 fold change” value is -0.189.

For the sequence RRIRGRPPRLPRPRPRPMPQPRP, the “shrunken log2 fold change” value worked out at 0.255.

On to RRIRRRPPRLPRPRPRPCGVPRP, for which the “shrunken log2 fold change” value was 0.0719.

On to RRIRWRPPRLPRPRPRPVMDPRP, for which the “shrunken log2 fold change” value was -0.385.

Regarding RRIRFRPPRLPRPRPRPKEVPRP, the “shrunken log2 fold change” value stood at 0.0322.

For the sequence RRIRSRPPRLPRPRPRPCYFPRP, the “shrunken log2 fold change” value is -0.387.

With RRIRRRPPRLPRPRPRPVYKPRP, the “shrunken log2 fold change” value was 0.0922.

On to RRIRHRPPRLPRPRPRPVWSPRP, for which the “shrunken log2 fold change” value is -0.103.

On to RRIRGRPPRLPRPRPRPKEQPRP, for which the “shrunken log2 fold change” value was determined as 0.0833.

As for RRIRSRPPRLPRPRPRPHIMPRP, the “shrunken log2 fold change” value was -0.393.

Take RRIRMRPPRLPRPRPRPSYWPRP: the “shrunken log2 fold change” value was found to be 0.0657.

Take RRIRMRPPRLPRPRPRPVNDPRP: the “shrunken log2 fold change” value was -0.00185.

As for RRIRGRPPRLPRPRPRPIYTPRP, the “shrunken log2 fold change” value was determined as 0.173.

Turning to RRIRWRPPRLPRPRPRPSIRPRP, the “shrunken log2 fold change” value is -0.613.

Consider RRIRIRPPRLPRPRPRPPRKPRP, for which the “shrunken log2 fold change” value is 0.0691.

RRIRNRPPRLPRPRPRPRTHPRP: the “shrunken log2 fold change” value was -0.184.

On to RRIRSRPPRLPRPRPRPNNPPRP, for which the “shrunken log2 fold change” value is -0.3.

For RRIRFRPPRLPRPRPRPCIVPRP, the “shrunken log2 fold change” value was -0.637.

As to RRIRSRPPRLPRPRPRPCATPRP, the “shrunken log2 fold change” value was found to be 0.162.

In the case of RRIRSRPPRLPRPRPRPGFNPRP, the “shrunken log2 fold change” value is -0.038.

For RRIRPRPPRLPRPRPRPVDVPRP, the “shrunken log2 fold change” value was -0.0323.

In the case of RRIRYRPPRLPRPRPRPPELPRP, the “shrunken log2 fold change” value is 0.162.

Consider RRIRPRPPRLPRPRPRPLAVPRP, for which the “shrunken log2 fold change” value came to 0.161.

For the sequence RRIRPRPPRLPRPRPRPFGNPRP, the “shrunken log2 fold change” value is -0.146.

For RRIRRRPPRLPRPRPRPCTAPRP, the “shrunken log2 fold change” value was 0.866.

Consider RRIRYRPPRLPRPRPRPLWAPRP, for which the “shrunken log2 fold change” value was -0.25.

For the sequence RRIRLRPPRLPRPRPRPMSLPRP, the “shrunken log2 fold change” value is -0.0224.

In the case of RRIRYRPPRLPRPRPRPYQIPRP, the “shrunken log2 fold change” value was -0.659.

For the sequence RRIRFRPPRLPRPRPRPHDYPRP, the “shrunken log2 fold change” value was -0.323.

Consider RRIRSRPPRLPRPRPRPCCGPRP, for which the “shrunken log2 fold change” value worked out at 0.983.

With RRIRGRPPRLPRPRPRPLDFPRP, the “shrunken log2 fold change” value came out at 0.78.

Consider RRIRVRPPRLPRPRPRPAKYPRP, for which the “shrunken log2 fold change” value is -0.575.

Turning to RRIRRRPPRLPRPRPRPQPCPRP, the “shrunken log2 fold change” value is -0.101.
